Target: TEA domain transcription factor 1 (TEAD1) on the HuProt Human Proteome Microarray v3.1 (human) (UniProt P28347)
Test: peptide or protein array; purified FLAG-Lamin A/C (WT or Q353R) applied to a HuProt Human Proteome Microarray v3.1; two samples each, averages of the pairs compared

Chain of UniProt P28347 (P28347 whole entry, the tested form may be a part): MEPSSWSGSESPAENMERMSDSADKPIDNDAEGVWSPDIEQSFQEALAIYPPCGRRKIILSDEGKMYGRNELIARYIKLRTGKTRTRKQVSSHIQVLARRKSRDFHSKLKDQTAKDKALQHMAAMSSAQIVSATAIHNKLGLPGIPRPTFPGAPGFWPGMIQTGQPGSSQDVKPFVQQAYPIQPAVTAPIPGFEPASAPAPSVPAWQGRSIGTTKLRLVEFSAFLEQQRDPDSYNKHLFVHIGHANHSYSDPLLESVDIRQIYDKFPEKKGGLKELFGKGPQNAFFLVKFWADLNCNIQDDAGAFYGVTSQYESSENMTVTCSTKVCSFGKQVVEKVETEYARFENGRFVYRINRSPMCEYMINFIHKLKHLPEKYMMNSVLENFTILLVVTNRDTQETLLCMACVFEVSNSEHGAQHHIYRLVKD

In the case of “FLAG-tagged Q353R Lamin A/C (from UniProt P02545 1-646) (natural protein)”, the fold affinity against WT Lamin A/C is reported as 8 fold.
